Experimental data: patent US20240116985A1 (published 2024)
Starred links: 1 amine or outer side, 2 acyl side, 3 side chain; linkers in the order of their positions; H or OH if unused. Positions of bridges follow the written chain, without caps; N, C: chain ends. Non-standard residues stand in square brackets, D forms with d. Primed or numbered codes have the meaning given here. *: point of attachment. PyrS2(3) = (S)-3-amino-1-((pent-4-en-1-yloxy)carbonyl)pyrrolidine-3-carboxylic acid, stapling residue, C=CCCCOC(=O)N1CC[C@@](N[*:1])(C(=O)[*:2])C1; PyrS2″ = (S)-3-amino-1-((pent-4-en-1-yloxy)carbonyl)pyrrolidine-3-carboxylic acid (stapling residue), C=CCCCOC(=O)N1CC[C@@](N[*:1])(C(=O)[*:2])C1; B5(4) = 2,2-bis(4-pentenyl)glycine = 2-amino-2-(pent-4-en-1-yl)hept-6-enoic acid (stitching residue), C=CCCCC(CCCC=C)(N[*:1])C(=O)[*:2]; TfeGA = (S)-2-amino-3-((carboxymethyl)(2,2,2-trifluoroethyl)amino)propanoic acid, O=C([C@H](CN(CC(=O)[*:3])CC(F)(F)F)N[*:1])[*:2]; B5(3) = 2,2-bis(4-pentenyl)glycine (stitching residue), C=CCCCC(CCCC=C)(N[*:1])C(=O)[*:2]; B5″ = 2,2-bis(4-pentenyl)glycine, stitching residue, C=CCCCC(CCCC=C)(N[*:1])C(=O)[*:2]; Phe(2-Cl) = N[C@@H](Cc1ccccc1Cl)C(=O)O; Bta = N[C@@H](Cc1csc2ccccc12)C(=O)O; αAllylPro = C=CC[C@@]1(C(=O)O)CCCN1; tBuAla = CC(C)(C)C[C@H](N)C(=O)O; 3Thi = N[C@@H](Cc1ccsc1)C(=O)O; Leu(ol) = CC(C)C[C@H](N)CO; Alaol = C[C@@H](CO)N*

T1: beta-catenin (Homo sapiens (Human), UniProt P35222 2-781)
T1 sequence: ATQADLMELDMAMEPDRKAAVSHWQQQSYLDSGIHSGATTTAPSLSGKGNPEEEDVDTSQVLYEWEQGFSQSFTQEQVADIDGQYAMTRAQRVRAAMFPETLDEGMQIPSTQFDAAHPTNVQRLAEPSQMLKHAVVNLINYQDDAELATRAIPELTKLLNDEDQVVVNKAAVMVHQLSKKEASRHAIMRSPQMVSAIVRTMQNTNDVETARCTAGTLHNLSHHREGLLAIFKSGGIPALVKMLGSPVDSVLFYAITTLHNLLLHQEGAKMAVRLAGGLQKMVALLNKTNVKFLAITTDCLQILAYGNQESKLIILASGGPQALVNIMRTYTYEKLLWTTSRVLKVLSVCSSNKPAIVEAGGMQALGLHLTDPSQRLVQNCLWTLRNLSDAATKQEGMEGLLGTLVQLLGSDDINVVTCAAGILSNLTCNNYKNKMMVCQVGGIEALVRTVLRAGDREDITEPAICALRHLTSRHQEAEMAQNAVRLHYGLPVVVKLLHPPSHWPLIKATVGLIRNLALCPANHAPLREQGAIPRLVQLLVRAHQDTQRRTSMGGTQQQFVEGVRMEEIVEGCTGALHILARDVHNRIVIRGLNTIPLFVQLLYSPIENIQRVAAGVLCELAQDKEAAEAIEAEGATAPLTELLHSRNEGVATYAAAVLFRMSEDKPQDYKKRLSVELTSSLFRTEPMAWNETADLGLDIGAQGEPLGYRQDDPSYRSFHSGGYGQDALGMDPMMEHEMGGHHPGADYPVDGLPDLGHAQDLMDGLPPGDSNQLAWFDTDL

T2: beta-catenin (Homo sapiens (Human), UniProt P35222 1-781)
T2 sequence: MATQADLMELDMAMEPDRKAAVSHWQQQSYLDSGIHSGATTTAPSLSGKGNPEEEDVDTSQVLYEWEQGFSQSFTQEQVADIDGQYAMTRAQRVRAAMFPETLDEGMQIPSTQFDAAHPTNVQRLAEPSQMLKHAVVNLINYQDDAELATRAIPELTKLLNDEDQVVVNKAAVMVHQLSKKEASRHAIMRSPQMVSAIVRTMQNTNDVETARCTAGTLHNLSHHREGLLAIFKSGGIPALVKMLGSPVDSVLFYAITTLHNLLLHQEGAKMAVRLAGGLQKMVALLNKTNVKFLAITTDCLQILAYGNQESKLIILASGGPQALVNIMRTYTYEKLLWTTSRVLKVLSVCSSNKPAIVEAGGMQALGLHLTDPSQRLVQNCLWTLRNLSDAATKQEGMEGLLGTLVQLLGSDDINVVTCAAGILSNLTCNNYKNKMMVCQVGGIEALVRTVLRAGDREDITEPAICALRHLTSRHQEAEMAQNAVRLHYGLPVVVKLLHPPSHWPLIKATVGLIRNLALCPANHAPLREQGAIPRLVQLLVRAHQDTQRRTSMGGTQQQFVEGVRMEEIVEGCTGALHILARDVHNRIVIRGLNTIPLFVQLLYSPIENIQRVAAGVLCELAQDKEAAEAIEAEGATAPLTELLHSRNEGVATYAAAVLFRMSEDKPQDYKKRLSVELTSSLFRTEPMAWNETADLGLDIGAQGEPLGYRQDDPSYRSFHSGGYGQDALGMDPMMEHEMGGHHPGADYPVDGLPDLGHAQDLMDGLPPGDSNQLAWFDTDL


What was measured:
beta-catenin [1] = biological target: T1, beta-catenin; test: cell-based or functional assay
beta-catenin [2] = biological target: T2, beta-catenin; test: cell-based or functional assay

Binder	DLD1 TCF c2 BrightGlo % Inhibition (TCF/LEF luciferase reporter; 0.625 uM by plate map, replicate 1) (beta-catenin [1])	DLD1 TCF c2 BrightGlo % Inhibition (TCF/LEF luciferase reporter; 0.625 uM by plate map, replicate 2) (beta-catenin [1])	DLD1 TCF c2 BrightGlo % Inhibition, 0.625 uM, replicate 1 (beta-catenin [2])	DLD1 TCF c2 BrightGlo % Inhibition, 0.625 uM, replicate 2 (beta-catenin [2])	DLD1 TCF c2 BrightGlo % Inhibition, 0.625 uM, replicate 3 (beta-catenin [2])	DLD1 TCF c2 BrightGlo % Inhibition, 1.25 uM, replicate 1 (beta-catenin [2])	DLD1 TCF c2 BrightGlo % Inhibition, 1.25 uM, replicate 2 (beta-catenin [2])	DLD1 TCF c2 BrightGlo % Inhibition, 1.25 uM, replicate 3 (beta-catenin [2])	DLD1 TCF c2 BrightGlo % Inhibition, 2.5 uM, replicate 1 (beta-catenin [2])	DLD1 TCF c2 BrightGlo % Inhibition, 2.5 uM, replicate 2 (beta-catenin [2])	DLD1 TCF c2 BrightGlo % Inhibition, 2.5 uM, replicate 3 (beta-catenin [2])	DLD1 TCF c2 BrightGlo % Inhibition, 5 uM, replicate 1 (beta-catenin [2])	DLD1 TCF c2 BrightGlo % Inhibition, 5 uM, replicate 2 (beta-catenin [2])	DLD1 TCF c2 BrightGlo % Inhibition, 5 uM, replicate 3 (beta-catenin [2])	DLD1 TCF c2 BrightGlo % Inhibition, 10 uM, replicate 1 (beta-catenin [2])	DLD1 TCF c2 BrightGlo % Inhibition, 10 uM, replicate 2 (beta-catenin [2])	DLD1 TCF c2 BrightGlo % Inhibition, 10 uM, replicate 3 (beta-catenin [2])	DLD1 TCF c2 BrightGlo % Inhibition, 20 uM, replicate 1 (beta-catenin [2])	DLD1 TCF c2 BrightGlo % Inhibition, 20 uM, replicate 2 (beta-catenin [2])	DLD1 TCF c2 BrightGlo % Inhibition, 20 uM, replicate 3 (beta-catenin [2])	other results
Ac-[αAllylPro]D[tBuAla][B5(4)]DDAAFN[PyrS2″][Phe(2-Cl)][Bta][Leu(ol)] (staple 1-4, 4-11) [I-1080]	20.2%	13.7%	–	–	–	–	–	–	–	–	–	–	–	–	–	–	–	–	–	–	DLD1 TCF c2 BrightGlo % Inhibition (TCF/LEF luciferase reporter; 0.625 uM by plate map, replicate 3) (beta-catenin [1]): 15.3%; DLD1 TCF c2 BrightGlo % Inhibition (TCF/LEF luciferase reporter; 1.25 uM by plate map, replicate 1) (beta-catenin [1]): 16%; DLD1 TCF c2 BrightGlo % Inhibition (TCF/LEF luciferase reporter; 1.25 uM by plate map, replicate 2) (beta-catenin [1]): 13.8%; DLD1 TCF c2 BrightGlo % Inhibition (TCF/LEF luciferase reporter; 1.25 uM by plate map, replicate 3) (beta-catenin [1]): 12.3%; DLD1 TCF c2 BrightGlo % Inhibition (TCF/LEF luciferase reporter; 2.5 uM by plate map, replicate 1) (beta-catenin [1]): 14.6%; DLD1 TCF c2 BrightGlo % Inhibition (TCF/LEF luciferase reporter; 2.5 uM by plate map, replicate 2) (beta-catenin [1]): 19.8%; DLD1 TCF c2 BrightGlo % Inhibition (TCF/LEF luciferase reporter; 2.5 uM by plate map, replicate 3) (beta-catenin [1]): 7.9%; DLD1 TCF c2 BrightGlo % Inhibition (TCF/LEF luciferase reporter; 5 uM by plate map, replicate 1) (beta-catenin [1]): 24.9%; DLD1 TCF c2 BrightGlo % Inhibition (TCF/LEF luciferase reporter; 5 uM by plate map, replicate 2) (beta-catenin [1]): 31%; DLD1 TCF c2 BrightGlo % Inhibition (TCF/LEF luciferase reporter; 5 uM by plate map, replicate 3) (beta-catenin [1]): 24.4%; DLD1 TCF c2 BrightGlo % Inhibition (TCF/LEF luciferase reporter; 10 uM by plate map, replicate 1) (beta-catenin [1]): 42.4%; DLD1 TCF c2 BrightGlo % Inhibition (TCF/LEF luciferase reporter; 10 uM by plate map, replicate 2) (beta-catenin [1]): 42.2%; DLD1 TCF c2 BrightGlo % Inhibition (TCF/LEF luciferase reporter; 10 uM by plate map, replicate 3) (beta-catenin [1]): 38.1%; DLD1 TCF c2 BrightGlo % Inhibition (TCF/LEF luciferase reporter; 20 uM by plate map, replicate 1) (beta-catenin [1]): 51.4%; DLD1 TCF c2 BrightGlo % Inhibition (TCF/LEF luciferase reporter; 20 uM by plate map, replicate 2) (beta-catenin [1]): 56.9%; DLD1 TCF c2 BrightGlo % Inhibition (TCF/LEF luciferase reporter; 20 uM by plate map, replicate 3) (beta-catenin [1]): 51.8%
Ac-[αAllylPro]D[tBuAla][B5(3)]DDAAFN[PyrS2″][Phe(2-Cl)][Bta]-Alaol (staple 1-4, 4-11) [I-1081]	9.2%	7.1%	–	–	–	–	–	–	–	–	–	–	–	–	–	–	–	–	–	–	DLD1 TCF c2 BrightGlo % Inhibition (TCF/LEF luciferase reporter; 0.625 uM by plate map, replicate 3) (beta-catenin [1]): 11.5%; DLD1 TCF c2 BrightGlo % Inhibition (TCF/LEF luciferase reporter; 1.25 uM by plate map, replicate 1) (beta-catenin [1]): 0.8%; DLD1 TCF c2 BrightGlo % Inhibition (TCF/LEF luciferase reporter; 1.25 uM by plate map, replicate 2) (beta-catenin [1]): 2.4%; DLD1 TCF c2 BrightGlo % Inhibition (TCF/LEF luciferase reporter; 1.25 uM by plate map, replicate 3) (beta-catenin [1]): 5.4%; DLD1 TCF c2 BrightGlo % Inhibition (TCF/LEF luciferase reporter; 2.5 uM by plate map, replicate 1) (beta-catenin [1]): 4.5%; DLD1 TCF c2 BrightGlo % Inhibition (TCF/LEF luciferase reporter; 2.5 uM by plate map, replicate 2) (beta-catenin [1]): 7.9%; DLD1 TCF c2 BrightGlo % Inhibition (TCF/LEF luciferase reporter; 2.5 uM by plate map, replicate 3) (beta-catenin [1]): 15.2%; DLD1 TCF c2 BrightGlo % Inhibition (TCF/LEF luciferase reporter; 5 uM by plate map, replicate 1) (beta-catenin [1]): 17.5%; DLD1 TCF c2 BrightGlo % Inhibition (TCF/LEF luciferase reporter; 5 uM by plate map, replicate 2) (beta-catenin [1]): 23.8%; DLD1 TCF c2 BrightGlo % Inhibition (TCF/LEF luciferase reporter; 5 uM by plate map, replicate 3) (beta-catenin [1]): 31%; DLD1 TCF c2 BrightGlo % Inhibition (TCF/LEF luciferase reporter; 10 uM by plate map, replicate 1) (beta-catenin [1]): 45.6%; DLD1 TCF c2 BrightGlo % Inhibition (TCF/LEF luciferase reporter; 10 uM by plate map, replicate 2) (beta-catenin [1]): 49.8%; DLD1 TCF c2 BrightGlo % Inhibition (TCF/LEF luciferase reporter; 10 uM by plate map, replicate 3) (beta-catenin [1]): 55.3%; DLD1 TCF c2 BrightGlo % Inhibition (TCF/LEF luciferase reporter; 20 uM by plate map, replicate 1) (beta-catenin [1]): 67.2%; DLD1 TCF c2 BrightGlo % Inhibition (TCF/LEF luciferase reporter; 20 uM by plate map, replicate 2) (beta-catenin [1]): 69.3%; DLD1 TCF c2 BrightGlo % Inhibition (TCF/LEF luciferase reporter; 20 uM by plate map, replicate 3) (beta-catenin [1]): 72.3%
Ac-[αAllylPro]D[tBuAla][B5(3)][3Thi][TfeGA]AAFN[PyrS2″]D[Bta]Q-NH2 (staple 1-4, 4-11) [I-1001]	–	–	-1.5%	9.3%	4.5%	-7%	-2.8%	6.1%	-8%	-7.6%	-5%	-6.7%	-6.7%	-0.7%	-3.6%	-4.8%	-7.4%	-1.2%	7.5%	3.5%	–
Ac-[αAllylPro]D[tBuAla][B5(3)]D[TfeGA]AAFF[PyrS2″]F[Bta]Q-NH2 (staple 1-4, 4-11) [I-988]	–	–	11%	10.7%	15.5%	5.7%	22.3%	21.2%	13.3%	28.8%	33.4%	32%	57.8%	62%	61.5%	72%	76.2%	78.1%	81.3%	81.9%	–
Ac-[αAllylPro]D[tBuAla][B5″]D[TfeGA]AAFN[PyrS2(3)][3Thi][Bta]Q-NH2 (staple 1-4, 4-11) [I-762]	–	–	14.5%	18.6%	9.3%	12.9%	16.9%	5.5%	12.9%	17.4%	11.9%	28.2%	45.2%	44.6%	56.8%	70.2%	65.6%	75.7%	81.9%	78.7%	–
